Source: patent US20180282402A1 (ATYR PHARMA, published 2018)

T1: Human HARS (human, UniProt P12081 1-509, limits assumed)
T1 construct: also called human HRS; human histidyl-tRNA synthetase
T1 sequence: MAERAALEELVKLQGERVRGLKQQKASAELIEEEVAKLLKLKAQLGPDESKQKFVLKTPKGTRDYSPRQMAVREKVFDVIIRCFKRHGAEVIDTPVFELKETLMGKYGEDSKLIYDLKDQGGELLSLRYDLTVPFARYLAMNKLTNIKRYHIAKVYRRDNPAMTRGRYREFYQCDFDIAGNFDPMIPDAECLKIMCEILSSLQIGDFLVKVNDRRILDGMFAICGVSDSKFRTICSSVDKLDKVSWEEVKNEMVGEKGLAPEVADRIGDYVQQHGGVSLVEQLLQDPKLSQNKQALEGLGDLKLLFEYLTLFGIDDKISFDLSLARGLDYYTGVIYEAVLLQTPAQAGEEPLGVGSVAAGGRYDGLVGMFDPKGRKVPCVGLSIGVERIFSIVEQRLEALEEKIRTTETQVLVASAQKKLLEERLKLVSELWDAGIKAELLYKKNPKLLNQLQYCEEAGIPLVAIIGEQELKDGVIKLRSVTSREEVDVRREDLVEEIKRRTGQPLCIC


Biological target: T1, Human HARS
Assay: SPR (ProteOn); HRS protein immobilized, antibody as analyte

Row | Binder | Kd [nM]
1 | KL31-600 (antibody, human IgG1, V domains shown) VH: QVQLQQSGAELVRPGSSVRMSCKAVGYTFTDYCIGWIKQRPGHGLEWIGDICPGDAYTNDNEKFKDKATLTADTSSTTAYMQLSSLTSEDSAIYYCARGEEQVGLRNAMDYWGQGTSVTVSS VL: DIVLTQSPASLAVSLGQRATISCQSQSVSTSTYNYMHWYQQKPGQPPKLLIKYASNLESGVPARFSGSGSGTDFTLNIHPVEEEDTATYYCQHSWEIPWTFGGGTKLEIK | 12.2
2 | KL31-313 (antibody, IgG2a, V domains shown, Mouse; IgG2a kappa) VH: QVQLQQSGAELVRPGSSVRMSCKAVGYTFTDYCIGWIKQRPGHGLEWIGDICPGDAYTNDNEKFKDKATLTADTSSTTAYMQLSSLTSEDSAIYYCARGEEQVGLRNAMDYWGQGTSVTVSS VL: DIVLTQSPASLAVSLGQRATISCQSQSVSTSTYNYMHWYQQKPGQPPKLLIKYASNLESGVPARFSGSGSGTDFTLNIHPVEEEDTATYYCQHSWEIPWTFGGGTKLEIK | 277
3 | KL31-131 (antibody, V domains shown, Humanized; IgG1m(zf) kappa) VH: QVQLVQSGAEVKKPGASVKVSCKASGYTFTDYCIGWIRQAPGQGLEWMGDICPGDTYTNDNEKFKDRATMTADTSTSTAYMELSSLRSEDTAVYYCARGEEQLGLRNAMDYWGQGTLVTVSS VL: EIVLTQSPATLSLSPGERATLSCQSQSVSTSTYNYMHWYQQKPGQAPRLLIKYASNLESGIPDRFSGSGSGTDFTLTISRLEPEDFATYYCQHSWEIPWTFGGGTKVEIK | 0.25
4 | AB04-160 (antibody, V domains shown, Human; IgG1m(zf) kappa) VH: QVQLVESGGGLVKPGGSLRLSCAASGFTFSDYYMTWIRQAPGKGLEWVSYISGSFRYTNYADSVKGRFTISRDNAKNSLYLQMNSLRDEDTAVYFCARYVYQVVAIGDLWGQGTLVTVSS VL: DIQMTQSPSSVSASVGDRVTITCRASQGISSWLAWYQQKPGRAPKLLIFAASSLQSGVPSRFSGSGSGTHFTLTISSLQPEDFATYYCQQAKSFPYTFGQGTKLEIK | 0.06
5 | AB13-259 (IgG4-2 kappa) (antibody, V domains shown, Human) VH: QVQLVESGGGLVKPGGSLRLSCAASGFTFSDYYMSWIRQAPGKGLEWVSYISDKSRYTKYTDSVRGRFTISRDNAKNSLYLQMNSLRAEDTAVYYCARYLYQVIAIADAWGQGTLVTVSS VL: DIQMTQSPSSVSASVGDRVTITCRASQGISSWLAWFQQKPGKAPKLLIFVASNLESGVPSRFSGSGSGTDFTLTISSLQPEDFATYYCQQAESFPYTFGQGTKLEIK | 0.029
6 | AB13-259 (IgG1m(zf) kappa) (antibody, V domains shown, Human) VH: QVQLVESGGGLVKPGGSLRLSCAASGFTFSDYYMSWIRQAPGKGLEWVSYISDKSRYTKYTDSVRGRFTISRDNAKNSLYLQMNSLRAEDTAVYYCARYLYQVIAIADAWGQGTLVTVSS VL: DIQMTQSPSSVSASVGDRVTITCRASQGISSWLAWFQQKPGKAPKLLIFVASNLESGVPSRFSGSGSGTDFTLTISSLQPEDFATYYCQQAESFPYTFGQGTKLEIK | 0.015
7 | AB04-411 (antibody, V domains shown, Human; IgG1m(zf) kappa) VH: QVQLVESGGGLVKPGGSLRLSCAASGFTFSDYYMTWIRQAPGKGLEWVSYISGSNAYTDYADSVKGRFTISRDNAKNSLYLQMNSLRDEDTAVYFCARYVYQVVAVGDLWGQGTLVTVSS VL: DIQMTQSPSSVSASVGDRVTITCRASQGISSWLAWYQQKPGRAPKLLIFAASSLQSGVPSRFSGSGSGTHFTLTISSLQPEDFATYYCQQAKSFPYTFGQGTKLEIK | 1.9
8 | AB04-174 (antibody, V domains shown, Human; IgG1m(zf) kappa) VH: QVQLVESGGGLVKPGGSLRLSCAASGFTFSDYYMTWIRQAPGKGLEWVSYISGSNAYTDYADSVKGRFTISRDNAKNSLYLQMNSLRDEDTAVYFCARYVYQTVAIGDLWGQGTLVTVSS VL: DIQMTQSPSSVSASVGDRVTITCRASQGISSWLAWYQQKPGRAPKLLIFAASSLQSGVPSRFSGSGSGTHFTLTISSLQPEDFATYYCQQAKSFPYTFGQGTKLEIK | 170
9 | AB04-380 (antibody, V domains shown, Human; IgG1m(zf) kappa) VH: QVQLVESGGGLVKPGGSLRLSCAASGFTFSDYYMTWIRQAPGKGLEWVSYISGSFRYTNYAPSVKGRFTISRDNAKNSLYLQMNSLRDEDTAVYFCARYVYQVVAIGDLWGQGTLVTVSS VL: DIQMTQSPSSVSASVGDRVTITCRASQGISSWLAWYQQKPGRAPKLLIFAASSLQSGVPSRFSGSGSGTHFTLTISSLQPEDFATYYCQQAESFPYTFGQGTKLEIK | 0.026

More lines, now with the values ahead:

Row | Kd [nM] | Binder
10 | 6.79 | KL31-275 (antibody, IgG1, V domains shown, Mouse; IgG1 kappa) VH: QVQLQQSGAELVRPGSSVRMSCKAVGYTFTDYCIGWIKQRPGHGLEWIGDICPGDAYTNDNEKFKDKATLTADTSSTTAYMQLSSLTSEDSAIYYCARGEEQVGLRNAMDYWGQGTSVTVSS VL: DIVLTQSPASLAVSLGQRATISCQSQSVSTSTYNYMHWYQQKPGQPPKLLIKYASNLESGVPARFSGSGSGTDFTLNIHPVEEEDTATYYCQHSWEIPWTFGGGTKLEIK
11 | 0.67 | KL31-261 (antibody, V domains shown, Humanized; IgG1m(zf) kappa) VH: QVQLVQSGAEVKKPGASVKVSCKASGYTFTDYCIGWIRQAPGQGLEWMGDICPGDVYTNDNEKFKDRATMTADTSTSTAYMELSSLRSEDTAVYYCARGEEQLGLRNAMDYWGQGTLVTVSS VL: DIVMTQSPDSLAVSLGERATINCQSQSVSTSTYNYMHWYQQKPGQPPKLLIKYASNLESGVPDRFSGSGSGTDFTLTISSLQAEDVATYYCQHSWEIPWTFGGGTKVEIK
12 | 32.5 | KL31-523 (antibody, V domains shown, Humanized; IgG1m(zf) kappa) VH: QVQLVQSGAEVKKPGASVKVSCKASGYTFTDYCIGWIRQAPGQGLEWMGDICPGDAYTNDNEKFKDRATMTADTSTSTAYMELSSLRSEDTAVYYCARGEEQVGLRNAMDYWGQGTSVTVSS VL: DIVMTQSPDSLAVSLGERATINCQSQSVSTSTYNYMHWYQQKPGQPPKLLIKYASNLESGVPDRFSGSGSGTDFTLTISSLQAEDVATYYCQHSWEIPWTFGGGTKLEIK
13 | < 0.05 | AB13-227 (antibody, V domains shown, Human; IgG1m(zf) kappa) VH: QVQLVESGGGLVKPGGSLRLSCAASGFTFSDYYMSWIRQAPGKGLEWVSYISDSSRYTKYTDSVRGRFTISRDNAKNSLYLQMNSLRAEDTAVYYCARYLYQVIAIAKSWGQGTLVTVSS VL: DIQMTQSPSSVSASVGDRVTITCRASQGISSWLAWFQQKPGKAPKLLIFVASNLESGVPSRFSGSGSGTDFTLTISSLQPEDFATYYCQQAESFPYTFGQGTKLEIK
14 | < 0.001 | AB13-166 (antibody, V domains shown, Human; IgG1m(zf) kappa) VH: QVQLVESGGGLVKPGGSLRLSCAASGFTFSDYYMSWIRQAPGKGLEWVSYISDKSRYTKYTPSVRGRFTISRDNAKNSLYLQMNSLRAEDTAVYYCARYLYQVIAIADAWGQGTLVTVSS VL: DIQMTQSPSSVSASVGDRVTITCRASQGISSWLAWFQQKPGKAPKLLIFVASNLESGVPSRFSGSGSGTDFTLTISSLQPEDFATYYCQQAESFPYTFGQGTKLEIK
15 | 0.46 | AB04-276 (antibody, V domains shown, Human; IgG1m(zf) kappa) VH: QVQLVESGGGLVKPGGSLRLSCAASGFTFSDYYMTWIRQAPGKGLEWVSYISGSFAYTDYADSVKGRFTISRDNAKNSLYLQMNSLRDEDTAVYFCARYVYQVVAIGDYWGQGTLVTVSS VL: DIQMTQSPSSVSASVGDRVTITCRASQGISSWLAWYQQKPGRAPKLLIFAASSLQSGVPSRFSGSGSGTHFTLTISSLQPEDFATYYCQQAKSFPYTFGQGTKLEIK
16 | 0.185 | AB04-365 (antibody, V domains shown, Human; IgG1m(zf) kappa) VH: QVQLVESGGGLVKPGGSLRLSCAASGFTFSDYYMTWIRQAPGKGLEWVSYISGSFAYTNYADSVKGRFTISRDNAKNSLYLQMNSLRDEDTAVYFCARYVYQVVAIGDYWGQGTLVTVSS VL: DIQMTQSPSSVSASVGDRVTITCRASQGISSWLAWYQQKPGRAPKLLIFAASSLQSGVPSRFSGSGSGTHFTLTISSLQPEDFATYYCQQAKSFPYTFGQGTKLEIK
17 | 0.9 | AB04-121 (antibody, V domains shown, Human; IgG1m(zf) kappa) VH: QVQLVESGGGLVKPGGSLRLSCAASGFTFSDYYMTWIRQAPGKGLEWVSYISGSNAYTDYADSVKGRFTISRDNAKNSLYLQMNSLRDEDTAVYFCARYVYQVVAIGDYWGQGTLVTVSS VL: DIQMTQSPSSVSASVGDRVTITCRASQGISSWLAWYQQKPGRAPKLLIFAASSLQSGVPSRFSGSGSGTHFTLTISSLQPEDFATYYCQQAKSFPYTFGQGTKLEIK
18 | 0.025 | AB04-151 (antibody, V domains shown, Human; IgG1m(zf) kappa) VH: QVQLVESGGGLVKPGGSLRLSCAASGFTFSDYYMTWIRQAPGKGLEWVSYISGSFRYTNYADSVKGRFTISRDNAKNSLYLQMNSLRDEDTAVYFCARYVYQVVAIGDYWGQGTLVTVSS VL: DIQMTQSPSSVSASVGDRVTITCRASQGISSWLAWYQQKPGRAPKLLIFAASSLQSGVPSRFSGSGSGTHFTLTISSLQPEDFATYYCQQAKSFPYTFGQGTKLEIK
19 | 0.265 | AB04-483 (antibody, V domains shown, Human; IgG1m(zf) kappa) VH: QVQLVESGGGLVKPGGSLRLSCAASGFTFSDYYMTWIRQAPGKGLEWVSYISGSNAYTNYADSVKGRFTISRDNAKNSLYLQMNSLRDEDTAVYFCARYVYQVVAIGDYWGQGTLVTVSS VL: DIQMTQSPSSVSASVGDRVTITCRASQGISSWLAWYQQKPGRAPKLLIFAASSLQSGVPSRFSGSGSGTHFTLTISSLQPEDFATYYCQQAKSFPYTFGQGTKLEIK
20 | 0.024 | AB13-147 (antibody, V domains shown, Human; IgG1m(zf) kappa) VH: QVQLVESGGGLVKPGGSLRLSCAASGFTFSDYYMSWIRQAPGKGLEWVSYISDSSRYTKYTDSVRGRFTISRDNAKNSLYLQMNSLRAEDTAVYYCARYLYQVIAIAKSWGQGTLVTVSS VL: DIQMTQSPSSVSASVGDRVTITCRASQGISSWLAWFQQKPGKAPKLLIFVASNLESGVPSRFSGSGSGTDFTLTISSLQPEDFATYYCQQANSFPYTFGQGTKLEIK
21 | 0.26 | AB04-482 (antibody, V domains shown, Human; IgG1m(zf) kappa) VH: not shown VL: DIQMTQSPSSVSASVGDRVTITCRASQGISSWLAWYQQKPGRAPKLLIFAASSLQSGVPSRFSGSGSGTHFTLTISSLQPEDFATYYCQQAKSFPYTFGQGTKLEIK
